Data reported in paper PMC3046868 (Nature, 2010).

Target: the molecule itself
Test: western blot

B1: HA-tagged wild-type APCDD1 (natural protein)
chain: not shown
modifications: glycosylated
- stoichiometry N: 2
